# The supplement of paper PMC10126150
# ± gives the standard deviation of the averaged measurements.
# Test system: ATP
# Experiment: switch fluorescence ratio, 500 uM ATP over buffer (Cy3 cluster intensity, sum of 5 cycles each) (fold (ratio)); higher = stronger signal-on switching upon ATP binding; sequences stand for … in TCGTCGGCAGCGTCAGATGTGTATAAGAGACAGTTTTTTTTTTTTTTTTTTTTTTTTT…TC
# Conditions: aptamer strand: ATP DNA aptamer (quencher-CACCTGGGGGAGTATTGCGGAGGAAGG + anchor), 100 nM annealed; ATP concentration: 500 uM
# In short: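 The quencher-labelled ATP aptamer, at 100 nM, was annealed to Cy3-labelled switching-strand clusters on a modified Illumina MiSeq flow-cell. The clusters were imaged in selection buffer, then after 15 min with 500 uM ATP at 22 °C, and this buffer/ATP cycle ran five times with NaOH stripping and re-annealing between runs. Per-cluster fluorescence ratios, summed target-cycle over summed buffer-cycle Cy3 intensity, were averaged per switch-domain sequence. Clusters outside 100-1000 RFU were excluded.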
# 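Note: ATP exposure 15 min at 22 °C before imaging.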
row,Sequence,switch fluorescence ratio
1,AATGGTCTCG,0.9842 ± 0.006
2,GCTCTTTGGG,1.06 ± 0.13
3,ATGCACGGAA,1.05 ± 0.036
4,AGTAAAGTTG,0.991 ± 0.024
5,ATTTTTATCC,1.022 ± 0.0068
6,TGATATTTTT,0.998 ± 0.028
7,GGGGGATGGA,1.0016 ± 0.0002
8,GATAGGATTG,0.987 ± 0.022
9,TGTGGCAAAA,1.015 ± 0.01
10,TCATCATGTT,1.01 ± 0.043
11,TCGATGCTGG,0.982 ± 0.084
12,TAAAAAGGAA,0.964 ± 0.064
13,CGGCGAAGTT,0.9883 ± 0.0046
14,TTTTGGTTGT,1.01 ± 0.029
15,TTACAGGGTA,0.981 ± 0.025
16,TAGTTGTTCT,0.962 ± 0.022
17,AATTAGTGTG,0.987 ± 0.022
18,TTATTGTAT,0.988 ± 0.043
19,AGTCGTGTGT,0.971 ± 0.046
20,AAAACGTATA,1.07 ± 0.039
21,CACACGTTTT,1.02 ± 0.013
22,GATTGGGTAC,1.03 ± 0.025
23,GGATGCCAGT,0.998 ± 0.013
24,TCGGTGCCTG,1.01 ± 0.36
25,CGCAGCTATT,3.56 ± 2.1

row,Sequence,switch fluorescence ratio
1,GGACTTGTCT,1.01 ± 0.053
2,CGGTGCGATT,1.03 ± 0.019
3,GAAGGGGATA,1.01 ± 0.036
4,GATGCCTGGA,1.02 ± 0.086
5,TTTTGCTGTT,0.987 ± 0.033
6,TCCGGGGAGC,1.06 ± 0.015
7,GGTTAGTACT,0.999 ± 0.017
8,TTAGATATAT,0.996 ± 0.036
9,CCTAAATTAT,1.02 ± 0.035
10,GGGGGATCGG,1.01 ± 0.022
11,TGGTTGCTTG,1.01 ± 0.034
12,AAGGGTTTAC,0.995 ± 0.035
13,GGGGCGCCTC,0.992 ± 0.03
14,TCGTGCGGGG,0.969 ± 0.016
15,AGGTATTAGG,0.988 ± 0.041
16,CCATACGTCA,1.25 ± 0.054
17,GAGCTAGGGA,1.011 ± 0.0013
18,AGTACTGTGG,0.996 ± 0.032
19,GCACTGGTGG,1.02 ± 0.032
20,TTTCGCTCGC,1.13 ± 0.02
21,GTGGTAACCT,1.4 ± 0.12
22,GTCAATAAGG,0.99 ± 0.016
23,TTACTATTGG,0.978 ± 0.013
24,TGGGTTACAT,1.01 ± 0.031
25,GCTTGTACGG,1.01 ± 0.039

row,Sequence,switch fluorescence ratio
1,CAGCGGTAGG,1.03 ± 0.016
2,GGGGGTTACG,0.998 ± 0.03
3,ATGCGTCGGA,1.032 ± 0.0066
4,CGGTAATGGG,0.943 ± 0.031
5,TTTGAAGGGA,0.996 ± 0.042
6,CGGCATGTCT,0.997 ± 0.076
7,TTTATGTATG,1.02 ± 0.034
8,GGTATTTGGT,0.988 ± 0.03
9,TGTACGTTGG,1.26 ± 0.37
10,GTTTGTGGGC,1.01 ± 0.077
11,TAGGGGTAGT,1.01 ± 0.033
12,TATGTTTAAA,0.9922 ± 0.0042
13,GGGATTTATA,0.995 ± 0.019
14,GAAGGACAGC,1.05 ± 0.034
15,TTGTTTTGCT,0.999 ± 0.073
16,TATTACGGGG,1.005 ± 0.006
17,CTTTGGATTG,0.99917 ± 0.00068
18,GTGGATTAGA,0.9767 ± 0.0056
19,ACTCTACTTG,1.42 ± 0.16
20,CCAACTGGGA,1.05 ± 0.012
21,AACCGGATCG,1.034 ± 0.01
22,AAGATACAGA,1.07 ± 0.016
23,TGTTGGCGGG,0.989 ± 0.015
24,GTGGATGGGA,0.977 ± 0.015
25,ATGGGGAATG,0.984 ± 0.016

row,Sequence,switch fluorescence ratio
1,TTGGCTTAAA,1.007 ± 0.0097
2,GGGGGTTGGG,1.01 ± 0.043
3,GGATAGTGTG,0.997 ± 0.014
4,TTATTGTTGG,0.974 ± 0.014
5,AAAAGGGGTT,1.02 ± 0.043
6,TGGGTGAAAA,1.001 ± 0.0036
7,TAATGGGGGC,0.994 ± 0.018
8,TTTAAGCAGA,1.04 ± 0.041
9,TTTCATATGA,1 ± 0.0082
10,TATTCTAGTG,1.013 ± 0.01
11,GGGGAGAGGT,1 ± 0.067
12,TTGGGGGGAC,1.03 ± 0.029
13,TGTAAGACCA,1.01 ± 0.012
14,CGCGTTGTGC,1.11 ± 0.021
15,TTAGGTTTAT,0.986 ± 0.013
16,TAGAGCTGCA,1.02 ± 0.026
17,AATTATGTAA,0.988 ± 0.036
18,CAGGGTGAGA,1.04 ± 0.016
19,TAAGACTGAT,1.016 ± 0.0019
20,AAGGGGGTTT,1 ± 0.036
21,GCTATCGAGT,1.01 ± 0.018
22,AGATTTGTGT,0.959 ± 0.024
23,CGCATTCTGC,1.17 ± 0.091
24,ATCATATTCG,0.99 ± 0.02
25,TAAAGCTTCG,1.27 ± 0.041

row,Sequence,switch fluorescence ratio
1,TGAAGTTCTT,0.965 ± 0.011
2,AATTTTTGAG,0.988 ± 0.024
3,GTAATGTGGT,0.967 ± 0.024
4,TATACCGCGA,2.49 ± 0.29
5,TAAATAGTTT,0.993 ± 0.013
6,ACCGGTGCTT,1.04 ± 0.032
7,CGGGTATAGG,1.013 ± 0.01
8,GGGCCTCGGA,0.988 ± 0.042
9,TAAGGGGGAG,0.999 ± 0.01
10,ATTGTTACTT,1.02 ± 0.019
11,CGGTGGGAGT,0.973 ± 0.03
12,TATCGGAAGG,0.9901 ± 0.0013
13,AGTAAAGGAA,0.999 ± 0.014
14,CGGGATTATC,1.01 ± 0.021
15,GGTTATTGGA,0.995 ± 0.058
16,TGGGCTTTGG,0.9992 ± 0.009
17,CGGTAAAAAG,1.01 ± 0.017
18,TTTTATAAAG,1 ± 0.022
19,AAAAGAGCCC,1.0191 ± 0.0008
20,ATTTTATAAA,0.986 ± 0.026
21,GCAGCTGTTT,1.02 ± 0.044
22,ATTTGTTGCG,0.999 ± 0.017
23,TTGGTTTGTG,1.01 ± 0.035
24,GGGTTGGGG,0.995 ± 0.048
25,ATGGTAATGG,1.02 ± 0.016

row,Sequence,switch fluorescence ratio
1,ATAGGTTCGT,0.99 ± 0.012
2,TTGTGGGCAG,1.03 ± 0.032
3,GGATATGTGG,0.99 ± 0.025
4,CGTGATATTG,1.01 ± 0.017
5,AAGGGACTCG,1.04 ± 0.059
6,ATGGGGAAAG,0.9876 ± 0.0034
7,AAATCGAGCT,1.04 ± 0.049
8,TGTGGCATGA,0.9736 ± 0.0058
9,TGCATTAGGA,1.02 ± 0.024
10,ATTGCGTGTA,1.023 ± 0.0085
11,AAAAAATGGA,1.01 ± 0.031
12,ACTAACGGGA,1.39 ± 0.15
13,GCCTTATATG,0.968 ± 0.03
14,ACTTACTATC,1.193 ± 0.0046
15,CATTTCAACC,1.019 ± 0.0021
16,GTCGTTAGGA,1.01 ± 0.0038
17,GGTTTTGGCG,1 ± 0.061
18,AGTCCGTGCT,1.05 ± 0.044
19,TCTAGGGCAA,1.66 ± 0.086
20,AGTTTGCGGG,1.006 ± 0.0094
21,TAGGGGGTTT,0.99 ± 0.032
22,CGGTTGTGAA,0.963 ± 0.018
23,CTATCCATGG,0.993 ± 0.017
24,CATGTTTTTG,1 ± 0.025
25,AGATTCATGT,0.988 ± 0.018

row,Sequence,switch fluorescence ratio
1,ATTCAGGTC,1 ± 0.038
2,GGGGATAGCG,1 ± 0.018
3,CTTTATAGGA,0.9944 ± 0.0056
4,CGGGGCATGG,1 ± 0.039
5,TTACGGGGAC,1.08 ± 0.089
6,ACTATATTTG,1.04 ± 0.022
7,GGGTTATGGT,0.998 ± 0.028
8,AAGAGGGGCT,1.015 ± 0.0018
9,ATGGCTTTTG,1.02 ± 0.037
10,TCGCTGTAGG,1.1 ± 0.059
11,CCCCAGGGGG,3.38 ± 2.3
12,GGGTTTCGTG,0.993 ± 0.015
13,AAAAAAGAGA,0.977 ± 0.046
14,AATGGGGGCT,1.02 ± 0.022
15,TCGGCGACAT,1.005 ± 0.0072
16,ACCGGGGGAG,0.984 ± 0.02
17,CATGGCCACC,1.015 ± 0.0078
18,GAGTCATTAA,0.96 ± 0.041
19,CATACACATT,1.06 ± 0.048
20,ATAGGAAATC,2.74 ± 0.75
21,GAATAATTGG,0.996 ± 0.015
22,AAGGAATGGT,1.05 ± 0.041
23,ACGACTTTGT,1.02 ± 0.032
24,ATCCGGTCGC,1.04 ± 0.029
25,TGTTGGGTTG,0.999 ± 0.015

row,Sequence,switch fluorescence ratio
1,TATTACAGGT,1.03 ± 0.0089
2,ATTCCATGGT,0.9909 ± 0.0052
3,TTAAAAGAT,0.998 ± 0.035
4,AGGCGGCCGT,0.9889 ± 0.0082
5,GGATAGGTTT,1.01 ± 0.034
6,TGATAAGGAG,1.01 ± 0.012
7,TTAAGAATTC,0.954 ± 0.021
8,GGTTGGACCA,0.9602 ± 0.0032
9,CGCGGGGCAC,1.062 ± 0.0025
10,GGTGGGAGGG,1.008 ± 0.0073
11,AGGGTTCTTT,1 ± 0.029
12,TCTAAGTTA,0.998 ± 0.012
13,AGTATCGAGC,1.02 ± 0.049
14,ATGGGCCCT,0.997 ± 0.031
15,TTTTAGGAGC,0.985 ± 0.023
16,GAAGTTACGG,1.11 ± 0.015
17,GAAGTTTTTT,1.002 ± 0.0036
18,GAGAGCTATC,0.9848 ± 0.0024
19,GCTCTAGTGT,0.996 ± 0.013
20,CGGAACAGTT,1.02 ± 0.024
21,AAAAGTTTTG,1.01 ± 0.011
22,ATATTTGCCA,1.02 ± 0.021
23,TTTTGACAGG,1.03 ± 0.011
24,TTGAGTGGAG,1.02 ± 0.029
25,TATACCTAGG,1.003 ± 0.0065
